Reference: the supplement of paper PMC9112550, “Optimization of the antimicrobial peptide Bac7 by deep mutational scanning” (BMC Biology, 2022)

Tested on: Escherichia coli TOP10
Assay: shrunken log2 fold change of peptide-encoding DNA abundance (4.5 h post-induction vs induction); higher = less antimicrobial activity (less host growth inhibition)
Details: time post-induction: 4.5 h; library: site-saturation at positions 5, 18, 19, 20
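Note: peptides expressed intracellularly from a pBAD plasmid library in pooled LB shake-flask culture, induced with 0.3% L-arabinose, DNA abundance read by NGS, three biological replicates, DESeq2 with apeglm shrinkage.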

Sequence	shrunken log2 fold change
RRIRWRPPRLPRPRPRPIVYPRP	-0.0137
RRIRHRPPRLPRPRPRPYLMPRP	-0.554
RRIRGRPPRLPRPRPRPLKYPRP	0.145
RRIRPRPPRLPRPRPRPMPMPRP	-0.301
RRIRGRPPRLPRPRPRPKRRPRP	1.3
RRIRYRPPRLPRPRPRPNYWPRP	-0.698
RRIRVRPPRLPRPRPRPRLMPRP	-0.0256
RRIRLRPPRLPRPRPRPFHKPRP	-0.54
RRIRLRPPRLPRPRPRPRTFPRP	-0.0808
RRIRYRPPRLPRPRPRPFINPRP	-1.17
RRIRMRPPRLPRPRPRPPFLPRP	0.305
RRIRTRPPRLPRPRPRPEQKPRP	0.154
RRIRCRPPRLPRPRPRPHCKPRP	-0.348
RRIRWRPPRLPRPRPRPWQMPRP	0.0308
RRIRCRPPRLPRPRPRPQAMPRP	0.189
RRIRTRPPRLPRPRPRPTVQPRP	0.0928
RRIRMRPPRLPRPRPRPADFPRP	0.0087
RRIRLRPPRLPRPRPRPFAQPRP	0.18
RRIRERPPRLPRPRPRPMFPPRP	-0.475
RRIRPRPPRLPRPRPRPVCPPRP	0.0159
RRIRHRPPRLPRPRPRPCYRPRP	-0.121
RRIRLRPPRLPRPRPRPRVMPRP	0.0356
RRIRLRPPRLPRPRPRPSWPPRP	0.00705

Sequence	shrunken log2 fold change
RRIRCRPPRLPRPRPRPSCEPRP	-0.493
RRIRYRPPRLPRPRPRPYSRPRP	-0.01
RRIRCRPPRLPRPRPRPFWAPRP	-0.0403
RRIRSRPPRLPRPRPRPGWNPRP	0.0897
RRIRHRPPRLPRPRPRPALKPRP	-0.322
RRIRCRPPRLPRPRPRPTFWPRP	0.174
RRIRSRPPRLPRPRPRPNYCPRP	-0.352
RRIRHRPPRLPRPRPRPQQNPRP	-0.0705
RRIRWRPPRLPRPRPRPDEYPRP	-0.0763
RRIRIRPPRLPRPRPRPYDIPRP	-0.0903
RRIRNRPPRLPRPRPRPFFTPRP	-0.147
RRIRCRPPRLPRPRPRPPKWPRP	0.447
RRIRARPPRLPRPRPRPFTYPRP	-0.0975
RRIRGRPPRLPRPRPRPKVNPRP	0.236
RRIRARPPRLPRPRPRPYMWPRP	-0.927
RRIRGRPPRLPRPRPRPANTPRP	0.152
RRIRYRPPRLPRPRPRPYNNPRP	-1.43
RRIRIRPPRLPRPRPRPSCLPRP	-0.998
RRIRGRPPRLPRPRPRPGNMPRP	-0.0382
RRIRLRPPRLPRPRPRPNHKPRP	-0.335
RRIRERPPRLPRPRPRPFMQPRP	-0.178
RRIRKRPPRLPRPRPRPLAQPRP	0.801
RRIRYRPPRLPRPRPRPEATPRP	0.28

Sequence	shrunken log2 fold change
RRIRSRPPRLPRPRPRPAFFPRP	0.328
RRIRWRPPRLPRPRPRPPYPPRP	0.0905
RRIRCRPPRLPRPRPRPAGMPRP	0.104
RRIRDRPPRLPRPRPRPDCTPRP	0.185
RRIRFRPPRLPRPRPRPCKAPRP	-0.0248
RRIRRRPPRLPRPRPRPKWFPRP	-0.0159
RRIRIRPPRLPRPRPRPGGGPRP	0.659
RRIRNRPPRLPRPRPRPIYGPRP	-0.224
RRIRKRPPRLPRPRPRPHVWPRP	0.82
RRIRHRPPRLPRPRPRPYFSPRP	-0.129
RRIRSRPPRLPRPRPRPDHMPRP	-0.00607
RRIRMRPPRLPRPRPRPIDNPRP	0.213
RRIRFRPPRLPRPRPRPERRPRP	0.166
RRIRWRPPRLPRPRPRPHCAPRP	-0.0143
RRIRKRPPRLPRPRPRPDLYPRP	-0.00937
RRIRCRPPRLPRPRPRPHISPRP	-0.535
RRIRSRPPRLPRPRPRPYGLPRP	-0.0943
RRIRCRPPRLPRPRPRPNMAPRP	-0.614
RRIRDRPPRLPRPRPRPSMGPRP	-0.11
RRIRQRPPRLPRPRPRPQCHPRP	-0.0344
RRIRNRPPRLPRPRPRPFHHPRP	-0.27
RRIRWRPPRLPRPRPRPTTGPRP	0.384
RRIRRRPPRLPRPRPRPIRTPRP	0.4

Sequence	shrunken log2 fold change
RRIRYRPPRLPRPRPRPDQNPRP	-0.269
RRIRTRPPRLPRPRPRPVMPPRP	0.372
RRIRDRPPRLPRPRPRPIPDPRP	-0.0185
RRIRHRPPRLPRPRPRPICRPRP	0.0125
RRIRLRPPRLPRPRPRPLYPPRP	-0.12
RRIRARPPRLPRPRPRPHQMPRP	-0.066
RRIRQRPPRLPRPRPRPYQLPRP	-0.00448
RRIRVRPPRLPRPRPRPHLHPRP	-0.279
RRIRIRPPRLPRPRPRPDWKPRP	0.036
RRIRFRPPRLPRPRPRPVGFPRP	-0.0508
RRIRPRPPRLPRPRPRPNCFPRP	-0.0261
RRIRDRPPRLPRPRPRPSFPPRP	-0.362
RRIRKRPPRLPRPRPRPGIDPRP	0.792
RRIRKRPPRLPRPRPRPVGEPRP	1.18
RRIRYRPPRLPRPRPRPRKDPRP	-0.288
RRIRNRPPRLPRPRPRPNPYPRP	-0.151
RRIRARPPRLPRPRPRPWIPPRP	-0.161
RRIRSRPPRLPRPRPRPEGGPRP	0.325
RRIRERPPRLPRPRPRPMWPPRP	0.186
RRIRNRPPRLPRPRPRPMCKPRP	-0.175
RRIRNRPPRLPRPRPRPEDTPRP	-0.0307
